Bridge positions count the residues as written; N and C are the ends. Square brackets hold non-standard residues; d marks the D form. Peptide text beside a SMILES is read from it. * marks the point of attachment. DOTA = O=C(O)CN1CCN(CC(=O)O)CCN(CC(=O)*)CCN(CC(=O)O)CC1; 1Nal = N[C@@H](Cc1cccc2ccccc12)C(=O)O; Thr(ol) = C[C@@H](O)[C@H](N)CO
Assays:
in vivo = settings: female, CD-1 Foxn-1/nu nude, mouse, iv, total radioactivity, Biodistribution
Method: (§1) AR42J tumor cells, a rat exocrine pancreatic tumor cell line which is known to express the somatostatin receptor, were obtained from the European Collection of Cell Cultures (ECACC). The cells were cultured in RPMI 1640 medium, supplemented with 10 % fetal calf serum, L-glutamine, and antibiotics under standard conditions in a humidified atmosphere with 5 % CO2 at 37 °C. Routine culture was performed by trypsinization of the cells twice a week. To inoculate the animals, the cells were detached using trypsin, centrifuged, and resuspended in PBS at a concentration of 5 × 10^6 cells/100 μL.
(§2) In vivo experiments were approved by the local veterinary department and conducted in accordance with the Swiss law of animal protection. Female nude mice (CD-1 Foxn-1/nu) were purchased from Charles River Laboratories (Sulzfeld, Germany). The animals were fed with a standard rodent chow ad libitum (Kliba Nafag, Kaiseraugst, Switzerland).
(§3) About 2 weeks prior to biodistribution and imaging studies, the mice were inoculated with AR42J tumor cells by subcutaneous injection of the cell suspension (5 × 10^6 cells/100 μL) on each shoulder.
(§4) Mice were euthanized at pre-determined time points between 30 min and 22 h after injection of the radioconjugate. […] Selected tissues and organs were collected, weighed, and counted for radioactivity using a γ-counter (Packard Canberra Cobra II, USA). The results were listed as a percentage of the injected activity per gram of tissue mass (% IA/g), using counts of a defined volume of the original injection solution measured at the same time.

AR42J tumor-bearing mice = assay: in vivo; settings: female, CD-1 Foxn-1/nu nude, mouse, iv, 5 nmol per mouse, 5 h
Method: as §1, §2, §3, §4

[1] = 2.5 nmol per mouse (5 MBq), AR42J tumor
[2] = 2.5 nmol per mouse (5 MBq), Blood
[3] = 2.5 nmol per mouse (5 MBq), Bone
[4] = 2.5 nmol per mouse (5 MBq), Brain
[5] = 2.5 nmol per mouse (5 MBq), Heart
[6] = 2.5 nmol per mouse (5 MBq), Lung

Work on `C[C@@H](O)[C@@H]1NC(=O)[C@H](CCCCN)NC(=O)[C@@H](Cc2c[nH]c3ccccc23)NC(=O)[C@H](Cc2cccc3ccccc23)NC(=O)[C@@H](NC(=O)[C@@H](Cc2ccccc2)NC(=O)CN2CCN(CC(=O)O)CCN(CC(=O)O)CCN(CC(=O)O)CC2)CSSC[C@@H](C(=O)N[C@H](CO)[C@@H](C)O)NC1=O` [^177Lu-DOTANOC, metal not drawn] ({DOTA}-[dF]C[1Nal][dW]KTC[Thr(ol)]; disulfide 2-7) yielded a tissue uptake at 5 h (in vivo; 0.5 nmol peptide, Adrenals) of 0.7 ± 0.13 %ID/g, a tissue uptake at 5 h (in vivo; 0.5 nmol peptide, Kidneys) of 6.63 ± 0.1 %ID/g and a tissue uptake at 5 h (in vivo; 0.5 nmol peptide, Lung) of 1.18 ± 0.36 %ID/g. For the same molecule, the tissue uptake at 5 h (in vivo; 0.5 nmol peptide, Spleen) was 0.24 ± 0.03 %ID/g, the tissue uptake at 5 h (in vivo; 0.5 nmol per mouse, AR42J Tumor) was 25.3 ± 4.14 %ID/g and the tissue uptake at 5 h (in vivo; 0.5 nmol, Blood) was 0.09 ± 0.01 %ID/g. It also gave a tissue uptake at 5 h (in vivo; 0.5 nmol, Bone) of 0.33 ± 0.08 %ID/g, a tissue uptake at 5 h (in vivo; 0.5 nmol, Brain) of 0.01 %ID/g and a tissue uptake at 5 h (in vivo; 0.5 nmol, Heart) of 0.08 ± 0.01 %ID/g. It also gave a tissue uptake at 5 h (in vivo; 0.5 nmol, Liver) of 0.34 ± 0.01 %ID/g, a tissue uptake at 5 h (in vivo; 0.5 nmol, Muscle) of 0.02 ± 0.01 %ID/g and a tissue uptake at 5 h (in vivo; 0.5 nmol, Stomach) of 3.78 ± 0.28 %ID/g. The tissue uptake at 0.5 h (in vivo; [1]) was 9.02 ± 0.33 %ID/g, the tissue uptake at 2 h (in vivo; [1]) was 8.32 ± 0.47 %ID/g and the tissue uptake at 5 h (in vivo; [1]) was 8.45 ± 1.04 %ID/g. The tissue uptake at 16 h (in vivo; [1]) was 5.48 ± 0.98 %ID/g, the tissue uptake at 22 h (in vivo; [1]) was 4.51 ± 0.37 %ID/g and the tissue uptake at 0.5 h (in vivo; [2]) was 2.52 ± 0.65 %ID/g. It also gave a tissue uptake at 2 h (in vivo; [2]) of 0.09 ± 0.01 %ID/g, a tissue uptake at 5 h (in vivo; [2]) of 0.06 ± 0.01 %ID/g and a tissue uptake at 16 h (in vivo; [2]) of 0.07 ± 0.01 %ID/g. For the same molecule, the tissue uptake at 22 h (in vivo; [2]) was 0.03 %ID/g, the tissue uptake at 16 h (in vivo; [3]) was 0.12 ± 0.05 %ID/g and the tissue uptake at 22 h (in vivo; [3]) was 0.08 ± 0.01 %ID/g. For the same molecule, the tissue uptake at 0.5 h (in vivo; [4]) was 0.06 ± 0.01 %ID/g, the tissue uptake at 2 h (in vivo; [4]) was 0.01 %ID/g and the tissue uptake at 5 h (in vivo; [4]) was 0.02 %ID/g. For the same molecule, the tissue uptake at 16 h (in vivo; [4]) was 0.02 ± 0.01 %ID/g, the tissue uptake at 22 h (in vivo; [4]) was 0.01 %ID/g and the tissue uptake at 0.5 h (in vivo; [5]) was 1.34 ± 0.35 %ID/g. It also gave a tissue uptake at 2 h (in vivo; [5]) of 0.08 ± 0.01 %ID/g, a tissue uptake at 5 h (in vivo; [5]) of 0.07 ± 0.01 %ID/g and a tissue uptake at 16 h (in vivo; [5]) of 0.07 ± 0.01 %ID/g. The tissue uptake at 22 h (in vivo; [5]) was 0.03 %ID/g, the tissue uptake at 0.5 h (in vivo; [6]) was 3.04 ± 0.47 %ID/g and the tissue uptake at 2 h (in vivo; [6]) was 0.45 ± 0.03 %ID/g. For the same molecule, the tissue uptake at 5 h (in vivo; [6]) was 0.41 ± 0.04 %ID/g, the tissue uptake at 0.5 h (in vivo; 2.5 nmol per mouse, Adrenals) was 1.38 ± 0.32 %ID/g and the tissue uptake at 2 h (in vivo; 2.5 nmol per mouse, Adrenals) was 0.28 ± 0.14 %ID/g. For the same molecule, the tissue uptake at 16 h (in vivo; 2.5 nmol per mouse, Adrenals) was 0.51 ± 0.4 %ID/g, the tissue uptake at 22 h (in vivo; 2.5 nmol per mouse, Adrenals) was 0.42 ± 0.18 %ID/g and the tissue uptake at 0.5 h (in vivo; 2.5 nmol per mouse, Bone) was 1.13 ± 0.26 %ID/g. It also gave a tissue uptake at 2 h (in vivo; 2.5 nmol per mouse, Bone) of 0.17 ± 0.01 %ID/g, a tissue uptake at 5 h (in vivo; 2.5 nmol per mouse, Bone) of 0.12 ± 0.02 %ID/g and a tissue uptake at 0.5 h (in vivo; 2.5 nmol per mouse, Intestines) of 0.94 ± 0.12 %ID/g. The tissue uptake at 2 h (in vivo; 2.5 nmol per mouse, Intestines) was 0.25 ± 0.04 %ID/g, the tissue uptake at 5 h (in vivo; 2.5 nmol per mouse, Intestines) was 0.25 ± 0.03 %ID/g and the tissue uptake at 16 h (in vivo; 2.5 nmol per mouse, Intestines) was 0.16 ± 0.01 %ID/g. For the same molecule, the tissue uptake at 0.5 h (in vivo; 2.5 nmol per mouse, Kidneys) was 13 ± 1.85 %ID/g, the tissue uptake at 2 h (in vivo; 2.5 nmol per mouse, Kidneys) was 7.67 ± 0.51 %ID/g and the tissue uptake at 5 h (in vivo; 2.5 nmol per mouse, Kidneys) was 9.1 ± 1.66 %ID/g. It also gave a tissue uptake at 16 h (in vivo; 2.5 nmol per mouse, Kidneys) of 6.13 ± 1.63 %ID/g, a tissue uptake at 22 h (in vivo; 2.5 nmol per mouse, Kidneys) of 4.8 ± 0.19 %ID/g and a tissue uptake at 0.5 h (in vivo; 2.5 nmol per mouse, Liver) of 1.43 ± 0.17 %ID/g. It also gave a tissue uptake at 2 h (in vivo; 2.5 nmol per mouse, Liver) of 0.52 ± 0.04 %ID/g, a tissue uptake at 5 h (in vivo; 2.5 nmol per mouse, Liver) of 0.53 ± 0.1 %ID/g and a tissue uptake at 16 h (in vivo; 2.5 nmol per mouse, Liver) of 0.27 ± 0.05 %ID/g. The tissue uptake at 22 h (in vivo; 2.5 nmol per mouse, Liver) was 0.2 ± 0.02 %ID/g, the tissue uptake at 16 h (in vivo; 2.5 nmol per mouse, Lung) was 0.27 ± 0.05 %ID/g and the tissue uptake at 0.5 h (in vivo; 2.5 nmol per mouse, Muscle) was 0.48 ± 0.16 %ID/g. For the same molecule, the tissue uptake at 2 h (in vivo; 2.5 nmol per mouse, Muscle) was 0.02 %ID/g, the tissue uptake at 5 h (in vivo; 2.5 nmol per mouse, Muscle) was 0.02 ± 0.01 %ID/g and the tissue uptake at 16 h (in vivo; 2.5 nmol per mouse, Muscle) was 0.03 %ID/g. The tissue uptake at 22 h (in vivo; 2.5 nmol per mouse, Muscle) was 0.01 %ID/g, the tissue uptake at 0.5 h (in vivo; 2.5 nmol per mouse, Pancreas) was 1.99 ± 0.07 %ID/g and the tissue uptake at 2 h (in vivo; 2.5 nmol per mouse, Pancreas) was 1.09 ± 0.17 %ID/g. For the same molecule, the tissue uptake at 5 h (in vivo; 2.5 nmol per mouse, Pancreas) was 0.88 ± 0.11 %ID/g, the tissue uptake at 16 h (in vivo; 2.5 nmol per mouse, Pancreas) was 0.34 ± 0.05 %ID/g and the tissue uptake at 22 h (in vivo; 2.5 nmol per mouse, Pancreas) was 0.25 ± 0.03 %ID/g. The tissue uptake at 0.5 h (in vivo; 2.5 nmol per mouse, Spleen) was 0.77 ± 0.03 %ID/g, the tissue uptake at 5 h (in vivo; 2.5 nmol per mouse, Spleen) was 0.18 ± 0.02 %ID/g and the tissue uptake at 22 h (in vivo; 2.5 nmol per mouse, Spleen) was 0.09 ± 0.01 %ID/g. For the same molecule, the tissue uptake at 0.5 h (in vivo; 2.5 nmol per mouse, Stomach) was 1.95 ± 0.23 %ID/g, the tissue uptake at 2 h (in vivo; 2.5 nmol per mouse, Stomach) was 1.14 ± 0.04 %ID/g and the tissue uptake at 5 h (in vivo; 2.5 nmol per mouse, Stomach) was 1.21 ± 0.55 %ID/g. The tissue uptake at 16 h (in vivo; 2.5 nmol per mouse, Stomach) was 0.68 ± 0.09 %ID/g, the tissue uptake at 22 h (in vivo; 2.5 nmol per mouse, Stomach) was 0.6 ± 0.22 %ID/g and the tissue uptake at 5 h (in vivo; 5 nmol peptide, Adrenals) was 0.18 ± 0.05 %ID/g. For the same molecule, the tissue uptake at 5 h (in vivo; 5 nmol peptide, Kidneys) was 7 ± 0.69 %ID/g, the tissue uptake at 5 h (in vivo; 5 nmol peptide, Lung) was 0.28 ± 0.01 %ID/g and the tissue uptake at 5 h (in vivo; 5 nmol peptide, Spleen) was 0.11 ± 0.02 %ID/g. It also gave a tissue uptake at 5 h (in vivo; 5 nmol per mouse, AR42J Tumor) of 3.82 ± 0.2 %ID/g, a tissue uptake at 5 h (in vivo; 5 nmol, Blood) of 0.06 ± 0.01 %ID/g and a tissue uptake at 5 h (in vivo; 5 nmol, Bone) of 0.09 ± 0.02 %ID/g. The tissue uptake at 5 h (in vivo; 5 nmol, Brain) was 0.01 %ID/g, the tissue uptake at 5 h (in vivo; 5 nmol, Heart) was 0.06 %ID/g and the tissue uptake at 5 h (in vivo; 5 nmol, Intestines) was 0.14 ± 0.01 %ID/g. It also gave a tissue uptake at 5 h (in vivo; 5 nmol, Liver) of 0.36 ± 0.04 %ID/g, a tissue uptake at 5 h (in vivo; 5 nmol, Muscle) of 0.02 %ID/g and a tissue uptake at 5 h (in vivo; 5 nmol, Pancreas) of 0.41 ± 0.01 %ID/g. For the same molecule, the tissue uptake at 5 h (in vivo; 5 nmol, Stomach) was 0.41 ± 0.05 %ID/g and the “Biodistribution, AR42J Tumor” value (AR42J tumor-bearing mice) was ~ 4 % IA/g.

Source: PMC4842197, “Preclinical in vivo application of ^152Tb-DOTANOC: a radiolanthanide for PET imaging” (EJNMMI Research, 2016)
